Reference: article PMC3706390

Molecular target: L30 (ribosomal protein L30) wild-type (rat) (UniProt P62890)
Assay: EMSA
Conditions: 30 mM Tris-HCl pH 8.0, 75 mM KCl, 5 mM MgCl2, 1 mM DTT, 0.04 ug/uL BSA, 10% glycerol, 50 ng/uL yeast tRNA, 30 C 15 min; EMSA gels 0.5X TBE at 4 C; RNase …

PHGPx SECIS 102 nt (REMSA) gave a Kd of 490 nM.
